Results reported in the nanobody polyreactivity screen of Harvey et al. (2022).

Assay: yeast display, Sf9 membrane polyspecificity reagent, FACS + sequencing; frameworks hold sequencing errors
Method in brief: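 Galactose induction of a Saccharomyces cerevisiae BJ5465 synthetic nanobody display library ran 36–48 hours. The cells were then stained for 1 hour at 4 °C with 10% biotinylated, detergent-solubilized Sf9 membrane reagent, pulled down on streptavidin microbeads and FACS-sorted into low and high (top ~1%) gates on expression and reagent-binding fluorescence. Labels for polyreactivity follow the gate of origin.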

Sequence | polyreactivity (PSR sort gate)
QVHLVESGGGLVQAGGRLRLSCAASGFIFWSNAMRWYRQAPGKERELVAAITWNGGDTYYADSVKGRFTISRDNAKNTVYLQMNSLKPEDTAVFYCAAVPSRRARYDYWGQGTQVTVSS | low polyreactivity
QVQLVESGGCLVQAGGSLRLSCAASGSTFRGNDMGWYRQAPGKEREFVAAITVSGGSTYYADSVKGRFTISRDNAKNTVYLQMNSLKPDDTAVYFCDARYLRYSSKTIQNEDYWGLGTQVTVSS | high polyreactivity
HVQLVESGGGLVQAGGRLRLSCAASGGTFWHYAMGWYRKAPGKERELFAAIRWRGVRTYYADSVKGRFTISRDNAKNTVYLQMNSLKPEDTAVYYCASTTWRSGRYNYWGQGTQVTVSS | high polyreactivity
QVQLVESGGGLVQAGGSLRLSCAASGFIFSTYAMGWYRQAPGKERELVSAISCSTGSTYYADSVKGRFTISRDNAKNTVYLQMNSLKPEDTAVYYCNALRRPSTEGRDYWGQGTQVTVSS | high polyreactivity
QVQLVESGGGLVQAGGSLRLSCAASGSTFNGYAMGWYRQAPGKERELVAAISKRGGSTYYADSVKGRFTISRDNAKNTVYLQMNSLKPEETAVYYCAARVGRTYTVVWWSHYNYWGQGTQVTVSS | high polyreactivity
QVQLVESGGGLVQAGGSLRLSCAASGSIFFYALGWYRQAPGKERELVADITYTGGSKYADSVKGRFTISRDNAKNTVYLQLNRLKPEDTAVYYCAKLDGGLFDYWGQGTQVTVSS | low polyreactivity
QVQLVESGGGLVQAGGSLRLSCAASGRILTYYVMGWYRQAPGKERELVAAITDSGGITYADSVKGRFTISRDNAKNTVYLQMNSLKPEDTAVYYCAAVRFFLYYFDFSAYDYWGQGTQVTVSS | low polyreactivity
QVQLVESGGGLVKAGGSLRLSCAASGSIFKSNAMGWYRQAPGKEWELVAAISDSGGSTYYADSVKGRFTISRDNAKNTVYLQMNSLKPEDTAVYYCNADWSWYNYYDFDYWGQGTQVTVSS | low polyreactivity
QVQIEESGGGLVQAGGSLRLSCAASGRIFARNALGWYRQSPGTEREFVAAITHSGGNTYYADSVKGRFTISRDNAKNSVYLQMNSLKPEDTAVYYCAKDYRSTKYDYWGQGTQVTVSS | low polyreactivity
QVQLVESGGGLVQAGGSLRLRCAASGSTIVQYDMGWYRQAPGKERELVAAISRTGSTYYADSVKGRFTISRDNAKNTVYLQINSLKPEDTAVYYCNAEFWRGTYRFGYWGQGTQVTVSS | low polyreactivity
QVQLVESGGGLVQAGGSLRLSCAASGITFHDNAMGWYRQAPGKERELVAVITRRGGRTYYADSVKGRFTISRDNAKNTVYLQMNSLKPEDTAVYYCAAYYDYTHRFYYWGQGTQVTVSS | high polyreactivity
QVQLVESGGGLVQAGGSLRLSCAASGRILLTYAMGWYRQAPGKERELVAAISSDSRTYYADSVKGRFTISRDNAKNTVYLQMNSLIPEDTAVYYCVRRRYKYDYWGQGTQVTVSS | low polyreactivity
QVQLVESGGGLVQAGGSLRLSCAASGFTFGRYGMGWYRQAPGKDREFVAAITGRTGTTYYADSVKGRFTISRDNAKNTVYLQMNSLKPEDTAVYYCAARGQYRSSRYPYYHWGQGTQVTVSS | high polyreactivity
QVQLVDSGGGLDQAGGSLRLSCASSGSSSNTMLWDGKDRRLGKKGSWSSTNYADSVKGRFTISRDNAKNTVYLQMNSLKPEDTAVYYCNAYHDYITEFNYWGQGTQVTVSS | low polyreactivity
QVQLVESGGGLVQAGGSLRLSCAASGYTFTSNAMGWYRQAPGKERELVAAITNVGSTNYADSVKGRFTISRDNAKNTVYLQMNSLKPEDTAVYYCAADWDAVYLQTADYDYWGQGTQVTVSS | low polyreactivity
QVQLVESGGGLVQAGGRLRLSCAASGGTFSSNAMGWYRQSPGKERELVAAITWSGGSTYYADSVKGRFTISRDNAKNTVYLQMNSLKPEDTAVYYCNARNQWRTVGKYDYWGQGTQVTVSS | low polyreactivity
QVQLVESGGGLVQAGGSLRLSCAASGFTFLDNAMGWYRPAPGKERELVAAISGIGGSTSYADSVKGRFTISRDNAKNTVYLQMNSLKPEDTAVYYCATRWQTVGRDTIFAYDYWGQGTQVTVSS | low polyreactivity
QVQIVESGGGLVQAGGSLRLSCAASGSIFYRNAMGWYRQAPGKERELVAAISSDGSTNYADSVKGRFTISRDNAKNTVYLQMNSLKPEDTAVYYCAAPWTQILDYWGQGTQVTVSS | low polyreactivity
QVQLVVSRGGLVQAGGSLRLSCAASGSTFYYNAMGWYRQAPGKERELVAAISRSGGRTYYADSVKGRFTISRDNAKNTVYLQMNSLKPEDTAVYYCAAEYFDWWVTYDYWGQGTQVTVSS | high polyreactivity
QVQLVESGGGLVQAGGSLRLTCAASGRTFALYAMGWYRQAPGKERELVAGITGRGGTTHYADSVKGRFTISRDYAKNTVYLQMNSLKPEDTAVYYCATTQSWRVPYRRLGYWGQGTQVTVSS | low polyreactivity
QVQLVESGGGLVQAGGSLRLSCAASGRIFSKYAMGWYRQAPGKEREFVASISYRGGSTYYADSVKGRFTISRDNAKNTVYLQMNSLKPEDTAVYYCATRKYADRESDYWGQGTQVTVSS | high polyreactivity
QVQLVESGGGLVQAGGSLRLICAASGSTFYKYNMGWYRQAPGKERELVAAISGSGTTTYYADTVKGRFTISRDNAKNTVYLQMNSLKPEDTAVYYCAARRFSPGSSGHGYWGQGTQVTVSS | high polyreactivity

Sequence | polyreactivity (PSR sort gate)
PVQLVESGGGLVQAGGSLRLSCAASGSTFVVYAMGWYRQAPGKERELVAAITSGVSTNYADSVKGRFTISRDNAKNTVYLQMNSLKPEDTAVYYCNKDVRPAYRWYDYWGQDTQVTVSS | low polyreactivity
QVQLVESGGGLVQAGGSLRLSCAASGRIFVLNAMGWYRQAPGKERELVAGITDGGSTNYADSVKGRFTISRDNAKNTVYLEMNSLKPEDTAVYYCAAVVYEYLYDFQAFVEDAGYYWGQGTQVTVSS | low polyreactivity
QVQLVESGGGLVQAGGSLRLSCAASGSIFSKNAIGWYRQAPGKERELVDAISASGASTYYADSVKGRFTISRDNEKNTVYLQMNSLKPEDTAVYYCNADVSGVSSYGRSYEFYYWGQGTQVTVSS | low polyreactivity
QVQLVESGGGLVQAGGSLRLSCAASGFTFYWNTMGWYRPAPGKERELVAAISWSGGDTDYADSVKGRFTISRDNAKNTVYLQMNSLKPEDTAVYYCNSIYVSDRSSAVSFDYWGQGTQVNVSS | low polyreactivity
QVQLVESGVGLVQARGSLRLSCAASGIIFKKTVMGWYRPSPGKERECVAPITSRDGSTYYADSVKGRFTISRDNANNTVYLQMNSLKPEDTAVYYCAAEVYDGYEYEVWYDYCGQGTQVTVSS | high polyreactivity
QVQLVESGGGLVQAGGSLRLSCAASGIIFYWYAMGWYRQAPGKERELVAAINSGGRTNYADSVKGRFTISRDNAKNTVYLQMNSLKPEDTAVYYCAARANPYVLKYYYWGQGTQVTVSS | high polyreactivity
QVQLVESGGGLVQAGGSLRLSCAASGFTLRGNAMGWYRPAPGKERELVAAISTGGSTYYADSVKGRFTISRDNAKNTVYLQMNSLKPEDTAVYYCARRGWFHYRYYYWGQGTQATVSS | high polyreactivity
QVQLVESGGGLVQAGGSLRLSCAASGYTFLGNAMGWYRQAPGKERELVAAISSGGTTYYADSVKGRFTISRDNAKNTVYLQMNSMKPEDTSVYYCADDRVGLSSGYDFWGQGTQVTVSS | low polyreactivity
QLQLVESGGGLVQAGGSLRLSCAASGFIFSWYAMGWYRQAPGKERELVAAISWSGGSTYYADSVKGRITISRDNANNSVYLQMNSLKPEDTAVYYCADDRGWAKEYYWVQGTQVTVSS | high polyreactivity
QVQLVESGGGLVQAGGSLRLSCAASGFIFLRYVMGWYRQAPGKERELVAVITGTGVRTYADSVKGRFTISRDNAKNTVYLQMTSLKPEDTAVYYCAVVSSSREVEVLDFDYWGLGTQVTVSS | low polyreactivity
QVQLVESGGGLVQAGGSLRLSCAASGNTFFDNAMGWYRQAPGKERELVAAITFSGGSTYYADSVKGRFTISRDNAKNTVYLQMNSLKPEDTAVYYCAAVIRSRYSYYEYDYWGQGTQVTVSS | high polyreactivity
QVQLVESGGGLVQAGGSLRLSCAASGSIFARYAMGWYRQAPGKERELVAAISSNSASTYYADSVKGRFTISRDNAKNTVYLQMNSLKPEDTAVYYCATAYRSYWLTDYSGQGTQVTVSS | low polyreactivity
QVQLVESGGGLVQAGGSLRLSCAASGFTFYFYALGWYRQAPGKERELVATITIGGRTNYADSVKGRFTISRDNAKNTVYLQMNSLKPEDTAVYYCAAAYLWISRYSGYDYWGQGTQVTVSS | high polyreactivity
QVQLVESGGGLVQAGGSLRLSCAASGRTFGGYTIGWSRQAPGKERELVAAIRWSGGRTYYADSVKGRFTISRDNAKNTVYLQMNSLKPEDTAVYYCNARYVFPYYWGQGTQVTVSS | high polyreactivity
QVQLVESGGGLVQAGGSLRLSCAASGLTFALYAMGWYRQAPGKERELVAAITGSGGSTYYADSVKGRFTISRDTAKNSVYLQMNSLKPEDTAVYYCNKLFYRWRIVDKYYYCGQGTQVTVSS | high polyreactivity
QVQRVESGGRLVPPGGSLRLSCAASGRIFYTNAMGCYRQAPGKERELVARITGAGNTYYADSVKGRFTISRDNAKNTVYLQLNSLKPEDTAVYYCTADLYWRGDYWGQGTQVTVSS | high polyreactivity
QVQLQESGGGLVQAGGSLRLSCAASGNIFEADIMGWYHQAHGKERELVASITDGGSTNYADSVKGRFNIKRDNAKNIVYLQMNSLKPEDTAVYYCAAIAYPDIATYFDYDSDYFYWGQGTQVTVSS | high polyreactivity
QVQLVESGGGLVQAGGSLRLSCAASGLIFSYYTMGWYRQAPGKERELVAAISSAGGSTYYADSVKGRFTISRDNAKNTVYLQMNSLKPEDTAVYYCAARYSGRPYGPPGYLWKDYYWGQGTQVTVSS | high polyreactivity
QVQLVESGGGLVQAGGSLRLSCAASGFIFKHNALGWYRQAPGKERELVAAISWSGDSTYYADSVKGRFTISRDNAKNTVYLQMNSLKPEDTAVYYCAAVRALRKVRDYYYWGQGTQVTVSS | high polyreactivity
QVQLVESGGGLVQAGGSLRLSCAASGLTFYRNAMGWYRQAPGKEREFVAAITSTDGSTYYADSVKGRFTISRDNAKNTVYLQMNSLKPEDTAVYYCAARRRRWSGYWGQGTQVTVSS | high polyreactivity
QVQLLESGGGLVQAGGSLRLSCAASGLIFWGYAMGWYRQAPGKERELVAAINATGGRTYYADSVKGRFTISRDNAKNTVYLQMNSLKPEDTAVYYCAAYSGFYDSYDYWGQGTQVTVSS | low polyreactivity
